Consider 60 molecules from patent US20090221680, “Aptamers that bind thrombin with high affinity” (published 2009).

The data set concerns the target thrombin (alpha-thrombin) (Homo sapiens, UniProt P00734;P00734 P00734:315-363,P00734:364-622). Briefly: filter.

On to AUGAUTAGGTTGGGTAGGGTGGTAUCAU (XNA, 2'-OMe 1-5,24-28, rest DNA) [ARC2835], for which the Kd (as a rule, the constant that tells how readily two partners part at equilibrium) was 1.27 nM.
On to ACTGCCTAGGTTGGGTAGGGTGGTGGCAGT (XNA, 2'-OMe G9, rest DNA) [ARC2621], for which the affinity, expressed as Kd, was 1.52 nM.
Molecule ACTGCCTAGGTTGGGTAGGGTGGTGGCAGT (XNA, 2'-OMe A8, rest DNA) [ARC2620] returned a Kd of 7.1 nM.
For the molecule UGATTAGGTTGGGTAGGGTGGTAUCA (XNA, 2'-OMe 1-3,24-26, rest DNA) [ARC2843], binding was characterised by a dissociation constant (Kd) of 0.62 nM.
Consider ACTGCCTAGGTTGGGTAGGGTGGTGGCAGT (XNA, 2'-OMe G22, rest DNA) [ARC2634], for which binding was characterised by a dissociation constant (Kd) of 0.549 nM.
In the case of ACTGCCTAGGTTGGGTAGGGTGGTGGCAGT (XNA, 2'-OMe C2, rest DNA) [ARC2614], the Kd is 0.052 nM.
Molecule ACTGCCTAGGTTGGGTAGGGTGGTGGCAGT (ssDNA, PS between G10 and T11) [ARC2653] yielded a Kd of 0.066 nM.
ACUGCCTAGGTTGGGTAGGGTGGTGGCAGU (XNA, 2'-OMe 1-5,27-30, rest DNA) [ARC2825]: the Kd was found to be 1.03 nM.
Take GAUTAGGTTGGGTAGGGTGGTAUC (XNA, 2'-OMe 1-3,22-24, rest DNA) [ARC2849]: binding was characterised by a dissociation constant (Kd) of 0.2 nM.
Molecule ACTGCCTAGGTTGGGTAGGGTGGTGGCAGT (XNA, 2'-OMe G25, rest DNA) [ARC2637] registered a Kd of 0.118 nM.
With ACTGCCTAGGTTGGGTAGGGTGGUGGCAGT (XNA, 2'-OMe U24, rest DNA) [ARC2636] the figure was 0.102 nM; with ACTGCCTAGGTTGGGTAGGGTGGTGGCAGT (ssDNA, PS between T16 and A17) [ARC2659], 0.452 nM.
With ACTGCCTAGGUTGGGTAGGGTGGTGGCAGT (XNA, 2'-OMe U11, rest DNA) [ARC2623], the Kd is 0.746 nM.
The molecule GCTGCCTAGGTTGGGTAGGGTGGTGGCAGC (ssDNA) [ARC2170] displayed a Kd of 0.19 nM.
Molecule ACTGCCTAGGTTGGGTAGGGTGGTGGCAGT (XNA, 2'-OMe G29, rest DNA) [ARC2641] registered a Kd of 0.171 nM.
The figure for ACTGCCTAGGTTGGGTAGGGTGGTGGCAGT (XNA, 2'-OMe G26, rest DNA) [ARC2638] is 0.192 nM; for CUGCCTAGGTTGGGTAGGGTGGTGGCAG (XNA, 2'-OMe 1-4,26-28, rest DNA) [ARC2832] it is 1.88 nM.
With GCCTAGGTTGGGTAGGGTGGTGGC (XNA, 2'-OMe 1-3,22,24, rest DNA) [ARC2845] the figure was 0.86 nM.
The molecule UGAUUAGGTTGGGTAGGGTGGUAUCA (XNA, 2'-OMe 1-5,22-26, rest DNA) [ARC2841] registered a Kd of 3.55 nM.
With ACTGCCTAGGTTGGGTAGGGTGGTGGCAGT (ssDNA, PS linkage between nt 2 and 3) [ARC2645] the figure was 0.167 nM; with ACUGCCTAGGTTGGGTAGGGTGGTGGCAGT (XNA, 2'-OMe U3, rest DNA) [ARC2615], 0.094 nM; with ACTGCCTAGGTTGGGTAGGGTGGTGGCAGT (ssDNA, PS between G23 and T24) [ARC2666], 0.992 nM.
With ATGATTAGGTTGGGTAGGGTGGTATCAT (ssDNA) [ARC2833], the Kd was 2.16 nM.
Molecule UGCCTAGGTTGGGTAGGGTGGTGGCA (XNA, 2'-OMe 1-3,25,26, rest DNA) [ARC2839] showed a Kd of 0.58 nM.
CUGCCTAGGTTGGGTAGGGTGGTGGCAG (XNA, 2'-OMe 1-5,24,26-28, rest DNA) [ARC2831] gave a Kd of 5.12 nM.
Take CCTCAGGGATGGTGTGGGTGGCTGAGG (ssDNA) [ARC1985]: the Kd came out at 5.7 nM.
As to ACTGCCTAGGTTGGGTAGGGTGGTGGCAGT (XNA, 2'-OMe C27, rest DNA) [ARC2639], the Kd was 0.08 nM.
Molecule GAUUAGGTTGGGTAGGGTGGUAUC (XNA, 2'-OMe 1-4,21-24, rest DNA) [ARC2848] gave a Kd of 2.09 nM.
In turn, UGAUTAGGTTGGGTAGGGTGGTAUCA (XNA, 2'-OMe 1-4,23-26, rest DNA) [ARC2842] showed a Kd of 1.06 nM.
On to ACTGCCTAGGTTGGGTAGGGTGGTGGCAGT (XNA, 2'-OMe G14, rest DNA) [ARC2626], for which binding was characterised by a dissociation constant (Kd) of 1.59 nM.
Take ACTGCCTAGGTTGGGTAGGGTGGTGGCAGT (XNA, 2'-OMe G10, rest DNA) [ARC2622]: the affinity, expressed as Kd, was 0.038 nM.
With AAUGATTAGGTTGGGTAGGGTGGTAUCAUU (XNA, 2'-OMe 1-5,26-30, rest DNA) [ARC2829] the figure was 0.93 nM.
In the case of ACTGCCTAGGTTGGGTAGGGTGGTGGCAGT (XNA, 2'-OMe G19, rest DNA) [ARC2631], the Kd is 4.96 nM.
Regarding UGCCUAGGTTGGGTAGGGTGGUGGCA (XNA, 2'-OMe 1-5,22,23,25,26, rest DNA) [ARC2837], the Kd worked out at 2.61 nM.
For AAUGAUUAGGTTGGGTAGGGTGGUAUCAUU (XNA, 2'-OMe 1-7,24-30, rest DNA) [ARC2827], the affinity, expressed as Kd, was 4.06 nM.
In turn, GCCUAGGTTGGGTAGGGTGGUGGC (XNA, 2'-OMe 1-4,21,22,24, rest DNA) [ARC2844] displayed a Kd of 2.65 nM.
Turning to GCCTAGGTTGGGTAGGGTGGTGGC (XNA, 2'-OMe 1-2,24, rest DNA) [ARC2846], binding was put at a Kd of 0.27 nM.
In turn, ACTGCCTAGGTTGGGTAGGGTGGTGGCAGU (XNA, 2'-OMe U30, rest DNA) [ARC2642] yielded a Kd of 0.094 nM.
Regarding ACUGCCUAGGTTGGGTAGGGTGGUGGCAGU (XNA, 2'-OMe 1-7,24,25,27-30, rest DNA) [ARC2823], the Kd was found to be 9.1 nM.
Take GATTAGGTTGGGTAGGGTGGTATC (ssDNA) [ARC2847]: the Kd turned out to be 0.21 nM.
ACTGCCTAGGTTGGGTAGGGTGGTGGCAGT (XNA, 2'-OMe C6, rest DNA) [ARC2618] displayed a Kd of 0.121 nM.
With GATTAGGTTGGGTAGGGTGGTAUC (XNA, 2'-OMe 1-2,23-24, rest DNA) [ARC2850], binding was put at a Kd of 0.33 nM.
Molecule CTGCCTAGGTTGGGTAGGGTGGTGGCAG (ssDNA) [ARC2171] displayed a Kd of 0.221 nM.
Regarding ACTGCCTAGGTTGGGTAGGGTGGTGGCAGT (XNA, 2'-OMe A28, rest DNA) [ARC2640], the Kd came to 0.174 nM.
ACTGCCUAGGTTGGGTAGGGTGGTGGCAGT (XNA, 2'-OMe U7, rest DNA) [ARC2619] had a Kd of 0.215 nM.
With UGCCTAGGTTGGGTAGGGTGGTGGCA (XNA, 2'-OMe 1-4,23,25,26, rest DNA) [ARC2838] the figure was 0.77 nM; with ACTGCCTAGGTTGGGTAGGGTGGTGGCAGT (XNA, 2'-OMe G13, rest DNA) [ARC2625], 0.568 nM; with AATGATTAGGTTGGGTAGGGTGGTATCATT (ssDNA) [ARC2826], 0.77 nM.
With ACTGCCTAGGTTGGGUAGGGTGGTGGCAGT (XNA, 2'-OMe U16, rest DNA) [ARC2628] the figure was 0.207 nM; with ACTGCCTAGGTTGGGTAGGGTGGTGGCAGT (XNA, 2'-OMe G4, rest DNA) [ARC2616], 0.091 nM.
AUGAUUAGGTTGGGTAGGGTGGUAUCAU (XNA, 2'-OMe 1-6,23-28, rest DNA) [ARC2834]: the affinity, expressed as Kd, was 10.3 nM.
As for ACUGCCTAGGTTGGGTAGGGTGGTGGCAGU (XNA, 2'-OMe 1-6,25,27-30, rest DNA) [ARC2824], the Kd turned out to be 0.73 nM.
With ACTGCCTAGGTTGGGTAGGGTGGTGGCAGT (XNA, 2'-OMe A1, rest DNA) [ARC2613] the figure was 0.173 nM; with CUGCCUAGGTTGGGTAGGGTGGUGGCAG (XNA, 2'-OMe 1-6,23,24,26-28, rest DNA) [ARC2830], 15.3 nM.
As to ACTGCCTAGGTTGGGTAGGGTGGTGGCAGT (XNA, 2'-OMe G23, rest DNA) [ARC2635], the affinity, expressed as Kd, was 0.248 nM.
ACTGCCTAGGTTGGGTAGGGTGGTGGCAGT (XNA, 2'-OMe G18, rest DNA) [ARC2630] had a Kd of 5.24 nM.
ACTGCCTAGGTTGGGTAGGGTGGTGGCAGT (ssDNA, PS between T12 and G13) [ARC2655] yielded a Kd of 0.079 nM.
As to AUGATTAGGTTGGGTAGGGTGGTAUCAU (XNA, 2'-OMe 1-4,25-28, rest DNA) [ARC2836], the Kd came out at 0.96 nM.
The figure for TGATTAGGTTGGGTAGGGTGGTATCA (ssDNA) [ARC2840] is 0.25 nM; for AAUGAUTAGGTTGGGTAGGGTGGTAUCAUU (XNA, 2'-OMe 1-6,25-30, rest DNA) [ARC2828] it is 0.33 nM.
